Assay results published in US20210062131A1, “In Vitro, Multi-Niche, Bone Marrow-on-a-Chip” (Georgia Tech Research Corporation, priority 2018, published 2021).

Tested on: CXCL12
Assay: CXCL12 expression by immunohistochemistry in BMOC device after adding mobilizing agents
Format: cell-based, human
Details: BMOC with OBs, HUVECs and MSCs; G-CSF and AMD3100 added on day 5, cells fixed and stained on day 6; IHC
Procedure: Cells were fixed and stained on day 6. CXCL12 expression was measured by immunohistochemistry (IHC); n=2-3 devices (× 5 ROI each), mean±SD.
Staining procedure for devices was adapted from previously reported approaches. Devices were washed with PBS, fixed with 4% formaldehyde (ThermoFisher), and permeabilized with 0.1% Triton X-100. Prior to staining, cells were blocked with 5% BSA, 3% goat serum in PBS. Primary antibodies were diluted (1:100) in blocking buffer and devices were stained overnight at 4° C. Devices were then washed with 0.1% BSA in PBS and stained with secondary antibodies (1:200) diluted in wash buffer for 3 hours at RT. Devices were washed with wash buffer and then stained with DAPI (1:1000) and Phalloidin AF647 (1:40).

B1: G-CSF: mobilizing agent added to the BMOC device (protein, UniProt P09919 31-207, looked up)
Granulocyte …: TPLGPASSLPQSFLLKCLEQVRKIQGDGAALQEKLVSECATYKLCHPEELVLLGHSLGIPWAPLSSCPSQALQLAGCLSQLHSGLFLYQGLLQALEGISPELGPTLDTLQLDVADFATTIWQQMEELGMAPALQPTQGAMPAFASAFQRRAGGVLVASHLQSFLEVSYRVLRHLAQP
Question: For B1, which “expression of cytokine CXCL12” value is on record?
Answer: decrease expression of cytokine CXCL12
